What all share (settings): both partners purified
Experiment [1] deals with T1, OTULINcat (aa 80-352) (human, UniProt Q96BN8 80-352). Nature of the experiment: ITC; PDZ variant (150-450 µM) in the syringe, OTULINcat variant (20-30 µM) in the cell; 25 °C; 20 mM HEPES pH 7.4, 200 mM NaCl, 2 mM TCEP; single-site binding model. In general terms: ITC needs no label: the signal is the heat of the interaction.
For experiment [2], the target named is SNX27 PDZ domain (aa 40-135) (human, UniProt Q96L92 40-135). Nature of the experiment: ITC; SNX27PDZ in the cell; OTULINcat, OTULIN PDZbm peptide or VPS26A in the syringe; 25 °C; 20 mM HEPES pH 7.4, 200 mM NaCl, 2 mM TCEP; single-site binding model.
Experiment [3] concerns the target T1, OTULINcat (aa 80-352). Kind of experiment: ITC; SHANK1-3 PDZ in the syringe, OTULINcat in the cell; 30 °C; 20 mM HEPES pH 7.4, 200 mM NaCl, 2 mM TCEP; single-site binding model.
In a further experiment the target is T2, OTULINcat (aa 80–352) (human, UniProt Q96BN8 80-352).
T2 construct: OTULIN, human, aa 80–352; His6-3C construct in pOPIN-B; tag cleaved with 3C protease; source: E. coli Rosetta2 (DE3) pLacI, purified (HisTrap, anion exchange, SEC)
T2 sequence (Q96BN8 80-352): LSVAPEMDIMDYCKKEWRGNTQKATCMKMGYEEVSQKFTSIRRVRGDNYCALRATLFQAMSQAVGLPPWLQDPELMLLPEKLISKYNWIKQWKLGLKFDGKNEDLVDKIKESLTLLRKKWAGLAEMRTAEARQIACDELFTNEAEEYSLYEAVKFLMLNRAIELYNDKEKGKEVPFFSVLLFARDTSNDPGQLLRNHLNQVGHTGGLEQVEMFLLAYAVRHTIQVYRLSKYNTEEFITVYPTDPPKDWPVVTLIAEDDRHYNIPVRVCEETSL
Nature of the experiment: ITC; 25 °C, 20 mM HEPES pH 7.4, 200 mM NaCl, 2 mM TCEP; 20–30 µM OTULINcat variant in the cell, 150–450 µM PDZ variant in the syringe; single-site model.

The target of a further experiment is SNX27PDZ (aa 40–135) (human, UniProt Q96L92 40-135). The experiment is described as above.

No end group written: not given here.

T1 sequence (Q96BN8 80-352): as above

B1: RhoGEF PDZ domain (41-123) (domain or fragment, UniProt O15085 41-123, looked up)
chain: TGLVQRCVIIQKDQHGFGFTVSGDRIVLVQSVRPGGAAMKAGVKEGDRIIKVNGTMVTNSSHLEVVKLIKSGAYVALTLLGSS
notes: RhoGEF, PDZ domain, residues 41-123; The printed DNA (249 nt) fits 83 residues; source: E. coli, purified analogous to SNX27PDZ (pOPIN-S vector)
By Kd is commonly meant the equilibrium constant for the complex coming apart. Read a high Kd as lower affinity. Broadly, the stoichiometry N is the number of molecules, sites or subunits per partner or assembly. With B1, in the experiment with OTULINcat (aa 80-352) [1], binding was characterised by a dissociation constant (Kd) of 38.3 µM and the “stoichiometry N” value was found to be 0.96.

B2: OTULIN C-terminal PDZbm peptide (aa 344-352) (peptide)
peptide: Ac-VRVCEETSL
notes: OTULIN, human, C-terminal PDZbm peptide, aa 344-352; also called OTULIN PDZbm peptide
Consider B2, for which the “stoichiometry N” value in experiment [2] stood at 1.07.

B3: SHANK2 PDZ domain (239-347) (domain or fragment)
chain: SDCIIEEKTVVLQKKDNEGFGFVLRGAKADTPIEEFTPTPAFPALQYLESVDEGGVAWQAGLRTGDFLIEVNNENVVKVGHRQVVNMIRQGGNHLVLKVVTVTRNLDPD
modifications: Printed 239-347 follows the older 1470-aa Q9UPX8 numbering; offset +379 to the current 1849-aa entry, so that the start falls on SDCIIEEKTV. The His6-SUMO tag was cleaved off.
B3: in the experiment with OTULINcat (aa 80-352) [3], binding was characterised by a dissociation constant (Kd) of 23.9 µM and the “stoichiometry N” value came out at 0.99.

B4: PSD95 PDZ2 (155-249) (domain or fragment, UniProt P78352 155-249, looked up)
chain: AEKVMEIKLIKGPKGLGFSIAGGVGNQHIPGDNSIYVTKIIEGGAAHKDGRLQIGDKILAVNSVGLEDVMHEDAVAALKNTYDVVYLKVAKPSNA
notes: PSD95, second PDZ domain, residues 155-249; The printed DNA (285 nt) fits 95 residues; source: E. coli, purified analogous to SNX27PDZ (pOPIN-S vector)
Regarding B4, in the experiment with OTULINcat (aa 80-352) [1], the Kd came to 98.9 µM and the “stoichiometry N” value was 0.91.

B5: Syntenin1 PDZ1 (domain or fragment, UniProt O00560 114-193, looked up)
chain: EVILCKDQDGKIGLRLKSIDNGIFVQLVQANSPASLVGLRFGDQVLQINGENCAGWSSDKAHKVLKQAFGEKITMTIRDR
notes: Syntenin1, PDZ1; source: expressed and purified analogous to SNX27PDZ (E. coli Rosetta2 (DE3) pLacI); His6-SUMO cleaved with SUMO protease
On to B5, for which the dissociation constant (Kd) with OTULINcat (aa 80–352) amounted to 1710 µM.

B6: OTULIN C-terminal PDZbm peptide (aa 344–352) (peptide, UniProt Q96BN8 344-352, looked up)
peptide: VRVCEETSL
notes: OTULIN, human, aa 344–352; also called OTULIN PDZbm peptide
The molecule B6 had an equilibrium dissociation constant (Kd) with SNX27PDZ (aa 40–135) of 1.1 µM.

B7: LNX2 PDZ3 (465-560) (domain or fragment, UniProt Q8N448 465-560, looked up)
chain: QEKHITVKKEPHESLGMTVAGGRGSKSGELPIFVTSVPPHGCLARDGRIKRGDVLLNINGIDLTNLSHSEAVAMLKASAASPAVALKALEVQIVEE
notes: LNX2, third PDZ domain, residues 465-560; The printed DNA (288 nt) fits 96 residues; source: E. coli, purified analogous to SNX27PDZ (pOPIN-S vector)
In the case of B7, in the experiment with OTULINcat (aa 80-352) [1], binding was characterised by a dissociation constant (Kd) of 57.1 µM and the “stoichiometry N” value came out at 0.87.

B8: SHANK1 PDZ domain (654-763) (domain or fragment, UniProt Q9Y566 654-763, looked up)
chain: GSDYIIKEKTVLLQKKDSEGFGFVLRGAKAQTPIEEFTPTPAFPALQYLESVDEGGVAWRAGLRMGDFLIEVNGQNVVKVGHRQVVNMIRQGGNTLMVKVVMVTRHPDMD
notes: source: E. coli, purified analogous to SNX27PDZ (pOPIN-S vector)
On to B8, for which, in the experiment with OTULINcat (aa 80-352) [3], the Kd came out at 22.6 µM and the “stoichiometry N” value was found to be 1.

B9: NHERF1 PDZ2 (150-235) (domain or fragment, UniProt O14745 150-235, looked up)
chain: LRPRLCTMKKGPSGYGFNLHSDKSKPGQFIRSVDPDSPAEASGLRAQDRIVEVNGVCMEGKQHGDVVSAIRAGGDETKLLVVDRET
notes: The printed DNA (258 nt) fits 86 residues; source: E. coli, purified analogous to SNX27PDZ (pOPIN-S vector)
Turning to B9, in the experiment with OTULINcat (aa 80-352) [1], binding was characterised by a dissociation constant (Kd) of 35.6 µM and the “stoichiometry N” value turned out to be 1.14.

B10: Syntenin1 PDZ1 (108-196) (domain or fragment, UniProt Q9JI92 108-196, looked up)
chain: AEIKQGIREVILCKDQDGKIGLRLKSVDNGIFVQLVQANSPASLVGLRFGDQVLQINGENCAGWSSDKAHKVLKQAFGEKITMTIRDRP
notes: Syntenin-1, first PDZ domain, residues 108-196; The printed DNA (267 nt) fits 89 residues; source: E. coli, purified analogous to SNX27PDZ (pOPIN-S vector)
Consider B10, for which the “stoichiometry N” value with OTULINcat (aa 80-352) [1] stood at 0.38.

B11: SHANK3 PDZ domain (563-671) (domain or fragment)
chain: SDYVIDDKVAVLQKRDHEGFGFVLRGAKAETPIEEFTPTPAFPALQYLESVDVEGVAWRAGLRTGDFLIEVNGVNVVKVGHKQVVALIRQGGNRLVMKVVSVTRKPEED
modifications: Printed 563-671 follows the older 1731-aa SHANK3 numbering; offset +75 to the current 1806-aa entry (inferred by homology to the SHANK2 start, 8 residues before the annotated PDZ). The His6-SUMO tag …
For the molecule B11, in the experiment with OTULINcat (aa 80-352) [3], the equilibrium dissociation constant (Kd) is 26.4 µM and the “stoichiometry N” value is 1.

The values above are taken from publication PMC6754446, “Regulation of the endosomal SNX27-retromer by OTULIN” (Nature Communications, 2019).
